Experimental data published in US20210032312A1 (Janssen / Centocor, published 2021).
One block for each binder: values may come before it.

Columns and labels:
[1] = target: T1, human CD8A-Fc (recombinant human CD8 alpha fused to Fc fragment of human IgG1) (human, UniProt P01732 22-182, limits assumed); experiment: SPR, dissociation rate on recombinant CD8 alpha
T1 construct: SPR ligand, captured by goat anti-human Fc; also called hCD8A-Fc; recombinant CD8 alpha; not shown: linker with flag (and polyhistidine) tag and Fc fragment of human IgG1; depends on which of the two constructs was used
T1 sequence (P01732 22-182 limits assumed): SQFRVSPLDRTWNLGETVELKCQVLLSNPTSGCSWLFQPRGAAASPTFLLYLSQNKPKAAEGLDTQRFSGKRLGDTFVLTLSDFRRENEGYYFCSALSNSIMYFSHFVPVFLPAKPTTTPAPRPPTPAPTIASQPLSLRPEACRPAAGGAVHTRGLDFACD

[2] = target: T2, human CD8A-Fc (in house) (human, UniProt P01732 22-182, limits assumed); experiment: SPR (ProteOn), captured hCD8A-Fc
T2 construct: captured by goat anti-human Fc on the ProteOn chip; also called hCD8A-Fc; recombinant human CD8 alpha; not shown: linker/tag and Fc of human IgG1
T2 sequence (P01732 22-182 limits assumed): as above

[3] = target: T3, cynomolgus monkey CD8 alpha on primary cynomolgus CD8+ T cells (cynomolgus monkey, UniProt P01732 23-235 (human entry)); experiment: flow cytometry, cyno CD8+ T cells
T3 construct: also called Cyno CD8alpha; cyno CD8A
T3 sequence (P01732 other isoform, or with tags, fused parts or gaps limits assumed): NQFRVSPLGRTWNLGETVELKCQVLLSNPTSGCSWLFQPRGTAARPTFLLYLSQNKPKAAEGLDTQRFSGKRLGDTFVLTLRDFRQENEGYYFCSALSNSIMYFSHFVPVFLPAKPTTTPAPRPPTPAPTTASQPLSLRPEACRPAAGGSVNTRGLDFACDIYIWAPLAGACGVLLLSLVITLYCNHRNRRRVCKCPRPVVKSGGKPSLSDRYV

[4] = target: T4, human CD8 alpha (CD8A) on primary human CD8+ T cells (human, UniProt P01732 22-235); experiment: flow cytometry, human CD8+ T cells
T4 construct: whole, on cells; also called hCD8A
T4 sequence (P01732 22-235): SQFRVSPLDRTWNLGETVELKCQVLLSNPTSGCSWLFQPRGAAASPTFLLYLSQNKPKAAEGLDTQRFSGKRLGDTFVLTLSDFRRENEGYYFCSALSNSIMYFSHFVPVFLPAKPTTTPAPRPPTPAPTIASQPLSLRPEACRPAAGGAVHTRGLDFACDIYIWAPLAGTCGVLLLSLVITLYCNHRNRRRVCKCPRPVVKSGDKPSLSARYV

- koff [1]: 0.000194 s⁻¹
B1: CD8S371 (designed binder)
chain: LPAPKNLVVSRVTEDSARLSWTAPDAAFDSFQIAYPEYPPPGEAIVLTVPGSERSYDLTGLKPGTEYFVIIQGVKGGVESWPLSAIFTT
notes: Printed as W48Y mutant of P282DR9P1359_F5; the entry holds the mutation

- koff [1]: 0.000846 s⁻¹
B2: CD8S376 (designed binder)
chain: LPAPKNLVVSRVTEDSARLSWTAPDAAFDSFQIAYPEWPPPGEAIVLTVPGSERSYDLTGLKPGTEYFVIIQGVKGGVESSPLSAIFTT
notes: W81S mutant of P282DR9P1359_F5; the entry holds the mutation

- koff [1]: 0.00155 s⁻¹
B3: CD8S392 (designed binder)
chain: LPAPKNLVVSRVTEDSARLSWTAPDAAFDSFAIAYPEYPPQGEAIVLTVPGSERSYDLTGLKPGTEYFVVIYGVKGGSYSAPLSAIFTT
notes: W38Y mutant of P282DR9P1359_F7; the entry holds the mutation

- koff [1]: 0.00403 s⁻¹
B4: CD8S373 (designed binder)
chain: LPAPKNLVVSRVTEDSARLSWTAPDAAFDSFQIAYPEIPPPGEAIVLTVPGSERSYDLTGLKPGTEYFVIIQGVKGGVESWPLSAIFTT
notes: Printed as W48I mutant of P282DR9P1359_F5; the entry holds the mutation

- koff [1]: 0.00355 s⁻¹
B5: CD8S394 (designed binder)
chain: LPAPKNLVVSRVTEDSARLSWTAPDAAFDSFAIAYPEIPPQGEAIVLTVPGSERSYDLTGLKPGTEYFVVIYGVKGGSYSAPLSAIFTT
notes: W38I mutant of P282DR9P1359_F7; the entry holds the mutation

- koff [1]: 0.000133 s⁻¹
B6: CD8S403 (designed binder)
chain: LPAPKNLVVSRVTEDSARLSWTAPDAAFDSFAIAYAEWPPQGEAIVLTVPGSERSYDLTGLKPGTEYFVVIYGVKGGSYSAPLSAIFTT
notes: P36A mutant of P282DR9P1359_F7; the entry holds the mutation

- koff [1]: 0.000403 s⁻¹
B7: CD8S374 (designed binder)
chain: LPAPKNLVVSRVTEDSARLSWTAPDAAFDSFQIAYPEWPPPGEAIVLTVPGSERSYDLTGLKPGTEYFVIIQGVKGGVESYPLSAIFTT
notes: W81Y mutant of P282DR9P1359_F5; the entry holds the mutation

- koff [1]: 0.00255 s⁻¹
B8: CD8S393 (designed binder)
chain: LPAPKNLVVSRVTEDSARLSWTAPDAAFDSFAIAYPELPPQGEAIVLTVPGSERSYDLTGLKPGTEYFVVIYGVKGGSYSAPLSAIFTT
notes: W38L mutant of P282DR9P1359_F7; the entry holds the mutation

- koff [1]: 0.00189 s⁻¹
B9: CD8S395 (designed binder)
chain: LPAPKNLVVSRVTEDSARLSWTAPDAAFDSFAIAYPEHPPQGEAIVLTVPGSERSYDLTGLKPGTEYFVVIYGVKGGSYSAPLSAIFTT
notes: W38H mutant of P282DR9P1359_F7; the entry holds the mutation

- koff [1]: 0.000571 s⁻¹
B10: CD8S372 (designed binder)
chain: LPAPKNLVVSRVTEDSARLSWTAPDAAFDSFQIAYPELPPPGEAIVLTVPGSERSYDLTGLKPGTEYFVIIQGVKGGVESWPLSAIFTT
notes: Printed as W48L mutant of P282DR9P1359_F5; the entry holds the mutation

- koff [1]: 0.00083 s⁻¹
B11: CD8S375 (designed binder)
chain: LPAPKNLVVSRVTEDSARLSWTAPDAAFDSFQIAYPEWPPPGEAIVLTVPGSERSYDLTGLKPGTEYFVIIQGVKGGVESLPLSAIFTT
notes: W81L mutant of P282DR9P1359_F5; the entry holds the mutation

- koff [1]: 0.0004 s⁻¹
B12: CD8S377 (designed binder)
chain: LPAPKNLVVSRVTEDSARLSWTAPDAAFDSFQIAYPEWPPPGEAIVLTVPGSERSYDLTGLKPGTEYFVIIQGVKGGVESEPLSAIFTT
notes: W81E mutant of P282DR9P1359_F5; the entry holds the mutation

- koff [2]: 0.000288 s⁻¹
- Cyno T-cell Binding 0.2 uM (MFI) [3]: 5280 MFI
- Cyno T-cell Binding 2 uM (MFI) [3]: 33300 MFI
- Human T-cell Binding 0.2 uM (MFI) [4]: 3270 MFI
- Human T-cell Binding 2 uM (MFI) [4]: 14500 MFI
B13: P283BR9P1363_F2 (designed binder)
chain: LPAPKNLVVSRVTEDSARLSWYRPDNRAGAFDSFLIQYQESEKVGEAIVLTVPGSERSYDLTGLKPGTEYTVSIYGVDVKYDIDSRPISSNPLSAIFTT
notes: FN3 domain

- koff [2]: 0.000271 s⁻¹
- Cyno T-cell Binding 0.2 uM (MFI) [3]: 4560 MFI
- Cyno T-cell Binding 2 uM (MFI) [3]: 54600 MFI
- Human T-cell Binding 0.2 uM (MFI) [4]: 4060 MFI
- Human T-cell Binding 2 uM (MFI) [4]: 32800 MFI
B14: P283DR9P1364_H9 (designed binder)
chain: LPAPKNLVVSRVTEDSARLSWTAPDAAFDSFSISYIEYPEIPGGEAIVLTVPGSERSYDLTGLKPGTEYWVPIWGVKGGIQSWPLSAIFTT
notes: FN3 domain

- koff [1]: 0.000152 s⁻¹
B15: CD8S396 (designed binder)
chain: LPAPKNLVVSRVTEDSARLSWTAPDAAFDSFYITYPEWPDPGGEAIVLTVPGSERSYDLTGLKPGTEYFVVIYGVKGGEIYSPLSAIFTT
notes: W32Y mutant of P282DR9P1359_C5; the entry holds the mutation

- koff [1]: 0.000443 s⁻¹
B16: CD8S398 (designed binder)
chain: LPAPKNLVVSRVTEDSARLSWTAPDAAFDSFSITYPEWPDPGGEAIVLTVPGSERSYDLTGLKPGTEYFVVIYGVKGGEIYSPLSAIFTT
notes: W32S mutant of P282DR9P1359_C5; the entry holds the mutation

- koff [1]: 0.00134 s⁻¹
B17: CD8S399 (designed binder)
chain: LPAPKNLVVSRVTEDSARLSWTAPDAAFDSFWITYPEYPDPGGEAIVLTVPGSERSYDLTGLKPGTEYFVVIYGVKGGEIYSPLSAIFTT
notes: W38Y mutant of P282DR9P1359_C5; the entry holds the mutation

- koff [1]: 0.00066 s⁻¹
B18: CD8S397 (designed binder)
chain: LPAPKNLVVSRVTEDSARLSWTAPDAAFDSFQITYPEWPDPGGEAIVLTVPGSERSYDLTGLKPGTEYFVVIYGVKGGEIYSPLSAIFTT
notes: W32Q mutant of P282DR9P1359_C5; the entry holds the mutation

- koff [1]: 0.0309 s⁻¹
B19: CD8S404 (designed binder)
chain: LPAPKNLVVSRVTEDSARLSWTAPDAAFDSFWITYAEWPDPGGEAIVLTVPGSERSYDLTGLKPGTEYFVVIYGVKGGEIYSPLSAIFTT
notes: P36A mutant of P282DR9P1359_C5; the entry holds the mutation

- koff [1]: 4.84e-05 s⁻¹
B20: CD8S402 (designed binder)
chain: LPAPKNLVVSRVTEDSARLSWTAPDAAFDSFWITYPEWPPPGGEAIVLTVPGSERSYDLTGLKPGTEYFVVIYGVKGGEIYSPLSAIFTT
notes: D40P mutant of P282DR9P1359_C5; the entry holds the mutation

- koff [1]: 0.0226 s⁻¹
B21: CD8S400 (designed binder)
chain: LPAPKNLVVSRVTEDSARLSWTAPDAAFDSFWITYPELPDPGGEAIVLTVPGSERSYDLTGLKPGTEYFVVIYGVKGGEIYSPLSAIFTT
notes: W38L mutant of P282DR9P1359_C5; the entry holds the mutation

- koff [1]: 0.0127 s⁻¹
B22: CD8S401 (designed binder)
chain: LPAPKNLVVSRVTEDSARLSWTAPDAAFDSFWITYPEIPDPGGEAIVLTVPGSERSYDLTGLKPGTEYFVVIYGVKGGEIYSPLSAIFTT
notes: W38I mutant of P282DR9P1359_C5; the entry holds the mutation

- koff [2]: 8.21e-05 s⁻¹
- Cyno T-cell Binding 0.2 uM (MFI) [3]: 4570 MFI
- Cyno T-cell Binding 2 uM (MFI) [3]: 31600 MFI
- Human T-cell Binding 0.2 uM (MFI) [4]: 3230 MFI
- Human T-cell Binding 2 uM (MFI) [4]: 10600 MFI
B23: P283BR9P1363_F6 (designed binder)
chain: LPAPKNLVVSRVTEDSARLSWPEEAVTATSFDSFLIQYQESEKVGEAIVLTVPGSERSYDLTGLKPGTEYTVSIYGVDVKWEGNRPVASNPLSAIFTT
notes: FN3 domain

- koff [2]: 0.00014 s⁻¹
- Cyno T-cell Binding 0.2 uM (MFI) [3]: 4430 MFI
- Cyno T-cell Binding 2 uM (MFI) [3]: 24900 MFI
- Human T-cell Binding 0.2 uM (MFI) [4]: 3310 MFI
- Human T-cell Binding 2 uM (MFI) [4]: 14800 MFI
B24: P283BR9P1363_G5 (designed binder)
chain: LPAPKNLVVSRVTEDSARLSWYRATTPAPHFDSFLIQYQESEKVGEAIVLTVPGSERSYDLTGLKPGTEYTVSIYGVDVKWEGNRPVASNPLSAIFTT
notes: FN3 domain

- koff [2]: 0.001 s⁻¹
- Cyno T-cell Binding 0.2 uM (MFI) [3]: 3160 MFI
- Cyno T-cell Binding 2 uM (MFI) [3]: 33800 MFI
- Human T-cell Binding 0.2 uM (MFI) [4]: 1830 MFI
- Human T-cell Binding 2 uM (MFI) [4]: 17200 MFI
B25: P283DR9P1364_F6 (designed binder)
chain: LPAPKNLVVSRVTEDSARLSWTAPDAAFDSFTIAYPEREQDKWGEAIVLTVPGSERSYDLTGLKPGTEYWVIIQGVKGGRPSTPLSAILTT
notes: FN3 domain

- koff [2]: 0.00174 s⁻¹
- Cyno T-cell Binding 0.2 uM (MFI) [3]: 1300 MFI
- Cyno T-cell Binding 2 uM (MFI) [3]: 36700 MFI
- Human T-cell Binding 0.2 uM (MFI) [4]: 458 MFI
- Human T-cell Binding 2 uM (MFI) [4]: 6300 MFI
B26: P283DR9P1364_F8 (designed binder)
chain: LPAPKNLVVSRVTEDSARLSWTAPDAAFDSFAIAYPEWPPGEAIVLTVPGSERSYDLTGLKPGTEYFVIIYGVKGGWTSPPLSAIFTT
notes: FN3 domain
